Earlier results as cited in patent US9856460B2, “Nucleic acids encoding synthetic scaffolds and host cells genetically modified with the nucleic acids” (The Regents of the University of California, priority 2008, dated 2018).

Target: T1, WASP GBD (Rattus norvegicus, UniProt O08816)
T1 construct: 196-274
Conditions: partner WASP GBD; measured in trans

T1 sequence (O08816 196-274): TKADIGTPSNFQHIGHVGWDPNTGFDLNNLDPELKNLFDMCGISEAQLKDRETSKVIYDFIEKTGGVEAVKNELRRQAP

GBD interaction ligand LVGALMHVMQKRSRAIHSSDEGEDQAGDEDED, SEQ ID NO: 30, partner WASP GBD [GBD lig.]
Kd: 1000 nM
